Assay results from the supplement of paper PMC7125110.
± gives the standard error. For some of these results: This sample holds only a part of the variants without activity.

B1: glmS ribozyme (parent)
chain: AUAAAAGCGCCAGAACUACAGAAAUGUAGUUGACGAGGAGGAGGUUUAUCGAAUUUUCGGCGGAUGCCUCCAAA

Legend:
Conditions in all cases: with glucosamine-6-phosphate
glucosamine-6-phosphate [1] = variants of: B1; assay: kcat; higher = faster cleavage; RNA array
Outline: (§1)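 A hybridised Cy3 probe tracked barcoded ribozyme variants, transcribed in situ by E. coli RNA polymerase on sequenced MiSeq chips, at 37 °C. The variants received 40 μM to 10 mM glucosamine-6-phosphate in HEPES/KCl/Mg(OAc)2 buffer. kobs came from decay fits and kcat and KM from weighted Michaelis–Menten fits.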

glucosamine-6-phosphate [2] = variants of: B1; assay: self-cleavage kobs at 40 uM GlcN6P; higher = faster cleavage; RNA array
Outline: as §1

glucosamine-6-phosphate [3] = variants of: B1; assay: KM; higher = weaker cofactor use; RNA array
Outline: as §1

glucosamine-6-phosphate [4] = variants of: B1; assay: self-cleavage kobs at 160 uM GlcN6P; higher = faster cleavage; RNA array
Outline: as §1

glucosamine-6-phosphate [5] = variants of: B1; assay: self-cleavage kobs at 2500 uM GlcN6P; higher = faster cleavage; RNA array
Outline: as §1

glucosamine-6-phosphate [6] = variants of: B1; assay: self-cleavage kobs at 640 uM GlcN6P; higher = faster cleavage; RNA array
Outline: as §1

glucosamine-6-phosphate [7] = variants of: B1; assay: self-cleavage kobs at 10000 uM GlcN6P; higher = faster cleavage; RNA array
Outline: as §1

Variant	kcat (glucosamine-6-phosphate [1]) [s⁻¹]	self-cleavage kobs at 40 uM GlcN6P (glucosamine-6-phosphate [2]) [s⁻¹]	KM (glucosamine-6-phosphate [3]) [µM]	self-cleavage kobs at 160 uM GlcN6P (glucosamine-6-phosphate [4]) [s⁻¹]	self-cleavage kobs at 2500 uM GlcN6P (glucosamine-6-phosphate [5]) [s⁻¹]	self-cleavage kobs at 640 uM GlcN6P (glucosamine-6-phosphate [6]) [s⁻¹]	self-cleavage kobs at 10000 uM GlcN6P (glucosamine-6-phosphate [7]) [s⁻¹]
A48U U49G	1.55e-05 ± 3.7e-06	< 1e-05	–	–	–	–	–
U65C C68G	–	–	418 ± 130	–	–	–	–
A52G C61U	–	< 1e-05	–	< 1e-05	< 1e-05	–	–
U47C C71U	0.00356 ± 0.00095	0.000124 ± 1.4e-05	1310 ± 520	0.000184 ± 6.7e-05	0.00219 ± 0.00045	0.00148 ± 0.0002	0.00312 ± 0.00038
C8G U31C A39G	–	< 1e-05	–	–	–	–	–
G32U	0.00158 ± 5.1e-05	1.52e-05 ± 1.4e-06	5150 ± 240	4.88e-05 ± 1.7e-06	0.000508 ± 1e-05	0.000173 ± 2.7e-06	0.00104 ± 1.4e-05
G38C U55G	–	< 1e-05	–	< 1e-05	< 1e-05	< 1e-05	< 1e-05
U31C A48U C50A A53C U65G G66A	–	< 1e-05	–	–	< 1e-05	–	< 1e-05
U55C G66U	0.00114 ± 0.00044	6.69e-05 ± 1.8e-05	–	0.000202 ± 5.7e-05	0.00105 ± 0.00021	0.000297 ± 5.7e-05	0.00102 ± 0.00022
C10U G40U U49A	–	< 1e-05	–	–	–	< 1e-05	–
A12G C16G A53U C71A	–	< 1e-05	–	–	–	–	–
A33U C50U	< 1e-05	< 1e-05	–	< 1e-05	< 1e-05	–	< 1e-05
G29A G38U A39G C58A G66A	–	< 1e-05	–	–	–	–	–
A6U U30C U56C	–	< 1e-05	–	–	–	–	–
G41A U47G	0.00145 ± 0.00012	–	3540 ± 470	6.46e-05 ± 2.1e-05	0.000656 ± 0.00011	0.00021 ± 4e-05	0.00104 ± 0.00017
C8A G35C C67A	–	< 1e-05	–	< 1e-05	–	< 1e-05	–
C10U G59C	–	< 1e-05	–	< 1e-05	–	< 1e-05	< 1e-05
G38U A39G	–	–	2660 ± 1000	–	–	–	–
A15C G44U C61G C67G	–	< 1e-05	–	–	< 1e-05	< 1e-05	< 1e-05
A15C A33C	6.42e-05 ± 3.3e-06	–	1900 ± 440	–	3.95e-05 ± 1.2e-05	–	5.37e-05 ± 6.3e-06
A42G U56A G60U	–	< 1e-05	–	–	< 1e-05	–	< 1e-05
